Experiments:
PALI1 PIR = molecular target: T1, PALI1 PIR (Homo sapiens, UniProt Q96JN0-3 1058-1250); assay: EMSA; 50 mM Tris-HCl pH 7.5 (25 C), 100 mM KCl, 2 mM 2-mercaptoethanol, 0.1 mg/mL BSA, 0.05% NP-40; FA at 30 C; nucleosome EMSA with 5% glycerol at 4 C (+5 ng/uL salmon sperm DNA for H2A-Cy5 probes); PALI1 PIR EMSA with 5% glycerol, binding at 30 C; probe 5 nM; conditions: protein: recombinant; tags: MBP removed by TEV; label: 3'-fluorescein; hairpin, 46 bp stem
T1 sequence: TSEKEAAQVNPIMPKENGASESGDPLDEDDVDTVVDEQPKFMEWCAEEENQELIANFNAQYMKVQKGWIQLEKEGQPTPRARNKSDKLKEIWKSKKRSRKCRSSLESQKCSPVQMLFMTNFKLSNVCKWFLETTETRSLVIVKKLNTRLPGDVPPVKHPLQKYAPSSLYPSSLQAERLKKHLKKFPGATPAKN

PRC2-PALI1 PIR = PRC2-PALI1 PIR (Homo sapiens, UniProt Q15910-2;O75530;Q15022;Q09028;Q96JN0-3 1-751;1-441;1-739;1-425;1058-1250); assay: fluorescence anisotropy; 50 mM Tris-HCl pH 7.5 (25 C), 100 mM KCl, 2 mM 2-mercaptoethanol, 0.1 mg/mL BSA, 0.05% NP-40; FA at 30 C; nucleosome EMSA with 5% glycerol at 4 C (+5 ng/uL salmon sperm DNA for H2A-Cy5 probes); PALI1 PIR EMSA with 5% glycerol, binding at 30 C; probe 5 nM; conditions: protein: recombinant, tags: His6-MBP (PreScission-cleavable), copies: 1;1;1;1;1, label: 3'-fluorescein; for Kd: hairpin, 46 bp stem
Chain of PRC2-PALI1 PIR (Q15910 other isoform, or with tags, fused parts or gaps, chain 1 of 4): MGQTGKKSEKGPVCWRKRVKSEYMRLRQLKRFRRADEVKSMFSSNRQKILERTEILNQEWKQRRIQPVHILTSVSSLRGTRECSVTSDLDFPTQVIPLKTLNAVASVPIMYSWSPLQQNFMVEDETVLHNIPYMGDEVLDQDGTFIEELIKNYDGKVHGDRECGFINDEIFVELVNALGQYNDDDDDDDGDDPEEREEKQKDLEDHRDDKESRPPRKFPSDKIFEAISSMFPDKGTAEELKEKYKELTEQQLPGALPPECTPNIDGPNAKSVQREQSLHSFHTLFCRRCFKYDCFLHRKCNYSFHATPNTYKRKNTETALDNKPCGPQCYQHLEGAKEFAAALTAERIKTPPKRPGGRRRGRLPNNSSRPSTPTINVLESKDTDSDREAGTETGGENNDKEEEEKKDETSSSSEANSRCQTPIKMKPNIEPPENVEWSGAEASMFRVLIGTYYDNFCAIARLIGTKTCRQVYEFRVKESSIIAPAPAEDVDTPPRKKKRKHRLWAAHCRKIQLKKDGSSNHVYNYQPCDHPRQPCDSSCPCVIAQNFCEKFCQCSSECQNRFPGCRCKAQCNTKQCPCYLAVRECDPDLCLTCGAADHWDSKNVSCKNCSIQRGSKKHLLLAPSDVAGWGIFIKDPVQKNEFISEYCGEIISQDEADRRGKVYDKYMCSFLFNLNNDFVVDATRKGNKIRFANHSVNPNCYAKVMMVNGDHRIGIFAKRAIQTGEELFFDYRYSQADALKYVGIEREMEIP
Chain of PRC2-PALI1 PIR (O75530 whole entry, chain 2 of 4): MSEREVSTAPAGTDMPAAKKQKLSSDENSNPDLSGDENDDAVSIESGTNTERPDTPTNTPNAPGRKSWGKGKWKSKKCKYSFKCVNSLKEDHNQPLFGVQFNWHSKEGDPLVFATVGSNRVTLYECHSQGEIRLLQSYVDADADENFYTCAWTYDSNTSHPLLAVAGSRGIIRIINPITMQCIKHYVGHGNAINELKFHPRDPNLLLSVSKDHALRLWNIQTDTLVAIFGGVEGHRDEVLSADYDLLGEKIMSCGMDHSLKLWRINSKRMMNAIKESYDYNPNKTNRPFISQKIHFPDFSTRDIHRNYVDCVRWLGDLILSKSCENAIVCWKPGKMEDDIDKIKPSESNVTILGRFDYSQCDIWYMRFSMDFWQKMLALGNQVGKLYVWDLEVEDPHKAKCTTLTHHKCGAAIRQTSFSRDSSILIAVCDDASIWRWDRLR
Chain of PRC2-PALI1 PIR (Q15022 whole entry, chain 3 of 4): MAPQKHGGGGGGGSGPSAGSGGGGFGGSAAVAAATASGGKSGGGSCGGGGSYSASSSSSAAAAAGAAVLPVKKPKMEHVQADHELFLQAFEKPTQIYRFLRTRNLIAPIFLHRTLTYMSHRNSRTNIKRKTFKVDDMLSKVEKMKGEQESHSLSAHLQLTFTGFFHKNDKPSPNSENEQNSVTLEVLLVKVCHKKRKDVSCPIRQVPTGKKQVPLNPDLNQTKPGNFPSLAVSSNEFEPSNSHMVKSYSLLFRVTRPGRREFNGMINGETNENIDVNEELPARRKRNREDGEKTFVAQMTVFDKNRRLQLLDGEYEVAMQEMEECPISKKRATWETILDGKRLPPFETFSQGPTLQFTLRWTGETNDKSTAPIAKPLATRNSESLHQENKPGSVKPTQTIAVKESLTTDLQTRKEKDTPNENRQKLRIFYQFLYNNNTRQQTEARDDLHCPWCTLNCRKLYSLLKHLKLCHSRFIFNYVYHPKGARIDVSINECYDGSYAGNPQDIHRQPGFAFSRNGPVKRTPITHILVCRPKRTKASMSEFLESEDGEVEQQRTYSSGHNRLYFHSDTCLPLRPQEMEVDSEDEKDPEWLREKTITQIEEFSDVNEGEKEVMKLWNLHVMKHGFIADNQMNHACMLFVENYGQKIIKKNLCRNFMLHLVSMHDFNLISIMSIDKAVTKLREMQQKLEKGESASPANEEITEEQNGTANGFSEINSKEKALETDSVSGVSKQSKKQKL
Chain of PRC2-PALI1 PIR (Q09028 whole entry, chain 4 of 4): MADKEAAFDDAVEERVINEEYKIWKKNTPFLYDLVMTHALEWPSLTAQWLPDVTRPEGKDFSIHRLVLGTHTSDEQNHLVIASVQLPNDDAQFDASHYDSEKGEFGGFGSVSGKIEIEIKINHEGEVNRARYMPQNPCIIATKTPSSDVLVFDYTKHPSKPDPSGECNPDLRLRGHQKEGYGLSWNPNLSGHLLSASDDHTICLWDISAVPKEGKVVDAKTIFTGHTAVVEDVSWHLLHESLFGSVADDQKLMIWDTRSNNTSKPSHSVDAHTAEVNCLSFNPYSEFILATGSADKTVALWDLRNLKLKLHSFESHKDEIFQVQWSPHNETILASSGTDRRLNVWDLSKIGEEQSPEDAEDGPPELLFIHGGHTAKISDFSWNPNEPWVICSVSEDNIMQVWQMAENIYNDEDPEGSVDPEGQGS

[1] = molecular target: PRC2 core (EZH2-EED-SUZ12-RBBP4) (Homo sapiens, UniProt Q15910-2;O75530;Q15022;Q09028 1-751;1-441;1-739;1-425); assay: as above; conditions: protein: recombinant; tags: His6-MBP (PreScission-cleavable); copies: 1;1;1;1; label: 3'-fluorescein; G4
Chain of PRC2 core (EZH2-EED-SUZ12-RBBP4) (Q15910 other isoform, or with tags, fused parts or gaps, chain 1 of 4): as the sequence (Q15910 other isoform, or with tags, fused parts or gaps, chain 1 of 4) above
Chain of PRC2 core (EZH2-EED-SUZ12-RBBP4) (O75530 whole entry, chain 2 of 4): as the sequence (O75530 whole entry, chain 2 of 4) above
Chain of PRC2 core (EZH2-EED-SUZ12-RBBP4) (Q15022 whole entry, chain 3 of 4): as the sequence (Q15022 whole entry, chain 3 of 4) above
Chain of PRC2 core (EZH2-EED-SUZ12-RBBP4) (Q09028 whole entry, chain 4 of 4): as the sequence (Q09028 whole entry, chain 4 of 4) above

B1: CpG46 (structured_DNA)
DNA: GGCGCCCTGCCCCGCCTCGCTCTGGCAGAGTGGGGAGCCAGCCGGCGCTAGCCGGCTGGCTCCCCACTCTGCCAGAGCGAGGCGGGGCAGGGCGCC
For B1, the Kd (PALI1 PIR) was 2300 ± 300 nM and the Kd (PRC2-PALI1 PIR) was 155 ± 26 nM.

B2: G4 24 RNA (structured_RNA)
RNA: UUAGGGUUAGGGUUAGGGUUAGGG
B2: binds [1]; binds (PRC2-PALI1 PIR; G4).

B3: CpG46 mt (structured_DNA)
DNA: AATATTTCATTTTATTCTATCTCAATGAGACAAAAGATTGATTAATGCTAATTAATCAATCTTTTGTCTCATTGAGATAGAATAAAATGAAATATT
With B3 the Kd (PRC2-PALI1 PIR) was 73.7 ± 10 nM.
